Key:
Conditions in all cases: 20 nM; 72 h
MCF10A [1] = assay: one-nucleolus phenotype percent effect (relative to siNT 0% and siNOL11 100%); higher = more cells with one nucleolus (ribosome biogenesis inhibition)
Description: (§1)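 After 72 h, cells were fixed and stained with Hoechst and anti-fibrillarin, and nucleoli per nucleus were counted with CellProfiler. Values are plate-adjusted percent effect for the one-nucleolus and 5+ nucleoli phenotypes, normalised to siNT (0%) and to the positive controls siNOL11 or siKIF11 (100%), as the mean of biological triplicates. Percent viability is the nuclei count relative to siNT.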

MCF10A [2] = assay: one-nucleolus phenotype percent effect, hitpick validation (relative to siNT 0% and siNOL11 100%); higher = more cells with one nucleolus
Description: (§2)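 Primary screen hits (microRNA mimics) were re-picked and rescreened for nucleolar number in MCF10A cells (hitpick validation; percent effect relative to the siNT and siNOL11/siKIF11 controls). A secondary screen measured nucleolar rRNA biogenesis inhibition: after 72 h of transfection at 20 nM, cells were labelled 1 h with 1 mM 5-EU and nucleolar 5-EU signal was quantified, normalised to siNT (0%) and siPOLR1A (100%). Means are over n=5 (MCF10A) or n=2 (RPE-1, HeLa) biological replicates.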

MCF10A [3] = assay: 5+ nucleoli phenotype percent effect (relative to siNT 0% and siKIF11 100%); higher = more cells with five or more nucleoli
Description: as §1

MCF10A [4] = assay: percent viability (nuclei count relative to siNT); higher = more viable cells
Description: as §1

hTERT RPE-1 = assay: nucleolar rRNA biogenesis percent inhibition (5-EU; siNT 0%, siPOLR1A 100%); higher = stronger inhibition of nucleolar rRNA biogenesis
Description: as §2

HeLa = assay: as above
Description: as §2

MCF10A [5] = assay: as above
Description: as §2

MCF10A [6] = assay: 5+ nucleoli phenotype percent effect, hitpick validation (relative to siNT 0% and siKIF11 100%); higher = more cells with five or more nucleoli
Description: as §2

| Sequence | one-nucleolus phenotype percent effect (MCF10A [1]) | one-nucleolus phenotype percent effect (MCF10A [2]) | 5+ nucleoli phenotype percent effect (MCF10A [3]) | percent viability (MCF10A [4]) | nucleolar rRNA biogenesis percent inhibition (hTERT RPE-1) | nucleolar rRNA biogenesis percent inhibition (HeLa) | nucleolar rRNA biogenesis percent inhibition (MCF10A [5]) | 5+ nucleoli phenotype percent effect (MCF10A [6]) |
| --- | --- | --- | --- | --- | --- | --- | --- | --- |
| GGCCAGCCACCAGGAGGGCUG [hsa-miR-3194-5p] | 81.9% | 199% | -36.9% | 18.6% | 50.9% | -11.3% | 22.9% | 4.28% |
| CCGUCGCCGCCACCCGAGCCG [hsa-miR-1181] | -33.1% | -55.6% | 96.7% | 128% | – | – | 86.9% | 40.2% |
| CUGGCGGCUGUGUCUUCACAG [hsa-miR-6770-3p] | 110% | -1.66% | -40.2% | 18.4% | – | – | -8.82% | 1.2% |
| AGGUAUUGCCACCCUUUCUAGU [hsa-miR-5681b] | 90.7% | 133% | -35.5% | 12.7% | – | – | 66% | -3.11% |
| GGCUCCUCCUCUCAGGAUGUG [hsa-miR-4268] | -15.6% | -21.2% | 82.4% | 41.5% | – | – | 133% | 51.9% |
| CAGGUCGUCUUGCAGGGCUUCU [hsa-miR-431-3p] | 84.4% | 182% | -53.4% | 35.3% | 118% | 115% | 83.8% | -15.2% |
| GAGGGCGGGUGGAGGAGGA [hsa-miR-3141] | 72.7% | 129% | -29.5% | 20.1% | – | – | 51.1% | -4.23% |
| CCCCACCUCCUCUCUCCUCAG [hsa-miR-1224-3p] | -25.7% | -32.5% | 97.2% | 86.7% | – | – | 22.4% | 28.1% |
| UGGCAAGGAAAGAAGAGGAUCA [hsa-miR-6809-5p] | 115% | 207% | -45.7% | 9.15% | – | – | 69.8% | -2.51% |
| GUGUGUGGAAAUGCUUCUGC [hsa-miR-147a] | 95.9% | 103% | -15.3% | 18.3% | – | – | 61.8% | 9.08% |
| UCUCCCUUGAGGGCACUUU [hsa-miR-4287] | -43.1% | -44.9% | 200% | 66% | – | – | 82.1% | 70% |
| AGGCGGAGACUUGGGCAAUUG [hsa-miR-25-5p] | 115% | 182% | -48.5% | 29.4% | 45.2% | 86.7% | 75.3% | -9.31% |
| AAGGAGAUGCUCAGGCAGAU [hsa-miR-6888-5p] | 86.2% | 173% | -54% | 31% | – | – | 50.6% | -11.7% |
| AGGAGCAGUGCCGGCCAAGGCGCC [hsa-miR-6081] | 81.7% | 152% | -52.9% | 22.9% | – | – | 57.3% | -16.9% |
| AGAUCAGAAGGUGAUUGUGGCU [hsa-miR-383-5p] | 68.7% | 125% | -26.7% | 14.2% | 123% | 129% | 0.973% | -5.3% |
| UUUGCAGUAACAGGUGUGAGCA [hsa-miR-6516-5p] | 80.3% | 142% | -40.6% | 23.8% | – | – | 48.6% | -19.1% |
| UGAAUGGUAAAGCGAUGUCACA [hsa-miR-4790-3p] | 71.6% | 78.8% | -42.5% | 32.2% | – | – | 105% | -2.28% |
| ACUCGGCGUGGCGUCGGUCGUG [hsa-miR-1307-3p] | 66.2% | 112% | -50.5% | 39.9% | 13.7% | 40.2% | 100% | -13.2% |
| CAUCUGGCAUCCGUCACACAGA [hsa-miR-3126-3p] | 67% | 105% | -5.56% | 9.11% | 50.7% | 4.46% | 22.1% | -8.87% |
| UGCCUGUCUACACUUGCUGUGC [hsa-miR-214-5p] | 93.5% | 122% | -42.1% | 31.1% | 87.1% | 32% | -8.48% | -11.5% |
| UUGCACUUGUCUCAGUGA [hsa-miR-4325] | 70.8% | 84.2% | -30.4% | 15.7% | – | – | 104% | 3.45% |
| CAAUCAGCAAGUAUACUGCCCU [hsa-miR-34a-3p] | 83.5% | 127% | -43.5% | 25.6% | 113% | -6.79% | 70.2% | 1.68% |
| AGAAAGGGUGGCAAUACCUCUU [hsa-miR-5681a] | 114% | 165% | -33.1% | 8.23% | – | – | 76.4% | -15.4% |
| AGGAGCUAUCCACUCCAGGUGUCC [hsa-miR-6500-5p] | 70.9% | 153% | -33% | 19.2% | – | – | 61.3% | 5.46% |
| UUUGGGACUGAUCUUGAUGUCU [hsa-miR-3913-5p] | -47.3% | -50.6% | 132% | 69.2% | – | – | 84.5% | 61% |
| CUAGGGGGUUUGCCCUUG [hsa-miR-4278] | 67.1% | 151% | -35.5% | 13.5% | – | – | 45.6% | -14.3% |
| AAGCAGCUGCCUCUGAGGC [hsa-miR-646] | 70.7% | 152% | -42.6% | 32.4% | – | – | 130% | -14.4% |

| Sequence | one-nucleolus phenotype percent effect (MCF10A [1]) | one-nucleolus phenotype percent effect (MCF10A [2]) | 5+ nucleoli phenotype percent effect (MCF10A [3]) | percent viability (MCF10A [4]) | nucleolar rRNA biogenesis percent inhibition (hTERT RPE-1) | nucleolar rRNA biogenesis percent inhibition (HeLa) | nucleolar rRNA biogenesis percent inhibition (MCF10A [5]) | 5+ nucleoli phenotype percent effect (MCF10A [6]) |
| --- | --- | --- | --- | --- | --- | --- | --- | --- |
| CUCUCCUCCCGGCUUC [hsa-miR-4279] | 87.9% | 188% | -34.9% | 14.1% | – | – | 26.8% | -6.3% |
| GGCUGGGUGCUCUUGUGCAGU [hsa-miR-5589-5p] | 71% | 92.2% | -4.52% | 17.4% | – | – | 70% | 21.5% |
| UUCUCCCACUACCAGGCUCCCA [hsa-miR-4713-5p] | -12.1% | -22.9% | 95.9% | 32.9% | – | – | 82.4% | 43% |
| UCUGCAGGGUUUGCUUUGAG [hsa-miR-1205] | 96.8% | 166% | -53.7% | 20.5% | – | – | 15.8% | -13.7% |
| ACUGGGCUUGGAGUCAGAAG [hsa-miR-378g] | 91.2% | 159% | -34.6% | 16.8% | – | – | 57.9% | -9.08% |
| CUCUCCCUCUUUACCCACUAG [hsa-miR-6867-3p] | -35% | -40.4% | 133% | 61.8% | – | – | 71.1% | 49.1% |
| GAGCAGGCGAGGCUGGGCUGAA [hsa-miR-4690-5p] | 70.8% | 176% | -41.1% | 11.1% | – | – | 101% | -12.8% |
| AGAGCAGAAGGAUGAGAU [hsa-miR-4468] | 66.8% | 109% | -43.6% | 16.5% | – | – | 102% | -14.8% |
| CUGGCGGAGCCCAUUCCAUGCCA [hsa-miR-4730] | 118% | 230% | -43.2% | 18.2% | – | – | 91.1% | -12.7% |
| ACUGGGGAGCAGAAGGAGAACC [hsa-miR-4667-5p] | 67.8% | 107% | -15.5% | 9.07% | – | – | 81.2% | 9.27% |
| AAAAGGCAUUGUGGUUUUUG [hsa-miR-548an] | 137% | 194% | -52.6% | 11.6% | – | – | 65.7% | -8.86% |
| GGCGACAAAACGAGACCCUGUC [hsa-miR-1273c] | 106% | 205% | -32.6% | 17.4% | – | – | 31.6% | -8.2% |
| UGUGUGGAUCCUGGAGGAGGCA [hsa-miR-3911] | 70.3% | 129% | -47% | 12.9% | – | – | 53.8% | -10.6% |
| GAGGGCAUGCGCACUUUGUCC [hsa-miR-4761-3p] | 85.1% | 86.5% | -23.9% | 20% | – | – | 76% | 14.2% |
| UCAUAGCCCUGUACAAUGCUGCU [hsa-miR-103b] | 72.9% | 144% | -32.5% | 46.2% | – | – | 47.6% | -15% |
| GAGCAAUGUAGGUAGACUGUUU [hsa-miR-3908] | 89.1% | 166% | -34.4% | 19.8% | – | – | 7.34% | -5.96% |
| CAGCCUCUGCCCUUGGCCUCC [hsa-miR-6877-3p] | 69.1% | 153% | -44.7% | 28.9% | – | – | 114% | -16.2% |
| CAAAGGUAUUUGUGGUUUUUG [hsa-miR-548m] | 68.6% | 130% | -40.8% | 39.4% | – | – | 4.11% | -10.9% |
| AGUGUGGCUUUCUUAGAGC [hsa-miR-644a] | 93.5% | 170% | -48.4% | 35% | – | – | 101% | -13.1% |
| UGGAGUCCAGGAAUCUGCAUUUU [hsa-miR-1289] | 78.3% | 130% | -51.8% | 20% | – | – | 68.1% | -9.57% |
| CAAUGGCACAAACUCAUUCUUGA [hsa-miR-5197-5p] | 71% | 65.4% | -38.9% | 22.7% | – | – | 16.5% | 20.5% |
| CACCAGGGCAGAGCAGGGCUGA [hsa-miR-6753-5p] | 68.1% | 141% | -40% | 15% | – | – | 91.2% | -17.4% |
| CGCGCCGGGCCCGGGUU [hsa-miR-3195] | 82.1% | 196% | -31.1% | 19.4% | – | – | 51.6% | -15.6% |
| AAAAGGCGGGAGAAGCCCCA [hsa-miR-4484] | 92.8% | 199% | -51.6% | 12% | – | – | 69.6% | -14.7% |
| AAAGGCAUAAAACCAAGACA [hsa-miR-3910] | 97% | 167% | -39.2% | 11.9% | – | – | 12.7% | -8.76% |
| CUCGGCGCGGGGCGCGGGCUCC [hsa-miR-1469] | 74.3% | 158% | -35.5% | 30% | – | – | 96.7% | -13.8% |

Source: the supplement of paper PMC10899765
